Laboratory results as given in US20090074780A1 (ESBATECH AN ALCON BIOMEDICAL RESEARCH UNIT, published 2009).
Each block holds one molecule with its values, some of them ahead of it.

Columns and labels:
[1] = molecular target: antigen of ESBA105 (not named in the examples) (UniProt P01375); experiment: assay not described
[2] = molecular target: T1, antigen of ESBA105 (not named in the examples) (UniProt P01375 77-233, limits assumed); experiment: assay not described
[3] = molecular target: T1, antigen of ESBA105 (not named in the …); experiment: assay not described; reference itself

T1 sequence (P01375 77-233 limits assumed): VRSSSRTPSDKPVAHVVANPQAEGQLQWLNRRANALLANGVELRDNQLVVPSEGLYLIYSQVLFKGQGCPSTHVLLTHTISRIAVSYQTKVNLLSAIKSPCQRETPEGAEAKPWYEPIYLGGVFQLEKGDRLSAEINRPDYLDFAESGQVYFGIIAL
antigen of ESBA105 (not named in the examples) (UniProt P01375), sequence (P01375 77-233 limits assumed): as above

Molecule: ESBA105 VH V103T (scFv)
- Activity relative to ESBA105 (relative to ESBA105) [1]: 1.2

B2: ESBA105 (scFv)
chain: MADIVMTQSPSSLSASVGDRVTLTCTASQSVSNDVVWYQQRPGKAPKLLIYSAFNRYTGVPSRFSGRGYGTDFTLTISSLQPEDVAVYYCQQDYNSPRTFGQGTKLEVKRGGGGSGGGGSGGGGSSGGGSQVQLVQSGAEVKKPGASVKVSCTASGYTFTHYGMNWVRQAPGKGLEWMGWINTYTGEPTYADKFKDRFTFSLETSASTVYMELTSLTSDDTAVYYCARERGDAMDYWGQGTLVTVSS
- Activity relative to ESBA105 [3]: 1 relative to ESBA105

Next, values leading:

- Binding Activity (relative to parental ESBA105) (relative to parental ESBA105) [1]: 1.2
Molecule: ESBA105_VL V3Q (scFv)

- Binding Activity (relative to parental ESBA105) [2]: 1 relative to parental ESBA105
B1: ESBA105_QC15.2 (scFv, V domains shown)
VH: QVQLVQSGAEVKKPGASVKVSCTASGYTFTHYGMNWVRQAPGRGLEWMGWINTYTGEPTYADKFKDRITFSLETSASTVYMELTSLTSDDTAVYYCARERGDAMDYWGQGTLVTVSS
VL: DIVMTQSPSSLSASVGDRVTLTCTASQSVSNDVVWYQQRPGKAPKLLIYSAFNRYTGVPSRFSGRGYGTDFTLTISSLQPEDVAVYYCQQDYNSPRTFGQGTKLEVK
